Results as given in patent US6562591 (RIGEL PHARMACEUTICALS, dated 2003).
One block for each binder: values may come before it.

Assays:
Test in all cases: co-immunoprecipitation: anti-HA IP, anti-FLAG blot, Phoenix-A cell lysates
[1] = target: T1, FLAG-NCK, full length human NCK with N-terminal FLAG epitope tag (human, UniProt P16333 2-377)
T1 construct: mature; also called FLAG-tagged NCK
Description: (§1) Washed precipitates were subjected to SDS-PAGE analysis and Western blotting. Supersignal and Supersignal West Duro substrates (Piers) were used as detection systems for the Western blotting.
(§2) Interaction of Tnik with TRAF2 and NCK—To confirm the interaction of Tnik with TRAF2, N-terminal HA-tagged Tnik was transiently expressed in Phoenix-A cells and HA-Tnik was immunoprecipitated by an anti-HA antibody. The immune complexes were resolved on SDS-PAGE and immunoblotted with an anti-TRAF2 antibody. Endogenous TRAF2 specifically co-immunoprecipitated with HA-Tnik (FIG. 6, top panel). To map the interaction domain on Tnik that mediated its interaction with TRAF2, we constructed several truncated forms of HA-tagged Tnik (FIG. 7) and co-expressed them with FLAG-tagged TRAF2. Anti-HA immunoprecipitates were then blotted with an anti-FLAG antibody to detect the co-immunoprecipitated FLAG-TRAF2. […] Expression levels of the transfected proteins were controlled by immunoblotting cell lysates with anti-HA and anti-FLAG antibodies (FIG. 8, middle and bottom panels).
(§3) We then mapped the domains on TRAF2 that mediated the interaction with Tnik. FLAG-tagged TRAF2 mutants (FIG. 9) were co-expressed with HA-Tnik and the lysates were subjected to anti-HA immunoprecipitation. The immune complexes were then blotted with an anti-FLAG antibody.

[2] = target: T2, FLAG-TRAF2, full length human Traf2 with N-terminal FLAG epitope tag (human, UniProt Q12933 2-501)
T2 construct: mature; also called FLAG-tagged TRAF2; TRAF2(WT)
T2 sequence: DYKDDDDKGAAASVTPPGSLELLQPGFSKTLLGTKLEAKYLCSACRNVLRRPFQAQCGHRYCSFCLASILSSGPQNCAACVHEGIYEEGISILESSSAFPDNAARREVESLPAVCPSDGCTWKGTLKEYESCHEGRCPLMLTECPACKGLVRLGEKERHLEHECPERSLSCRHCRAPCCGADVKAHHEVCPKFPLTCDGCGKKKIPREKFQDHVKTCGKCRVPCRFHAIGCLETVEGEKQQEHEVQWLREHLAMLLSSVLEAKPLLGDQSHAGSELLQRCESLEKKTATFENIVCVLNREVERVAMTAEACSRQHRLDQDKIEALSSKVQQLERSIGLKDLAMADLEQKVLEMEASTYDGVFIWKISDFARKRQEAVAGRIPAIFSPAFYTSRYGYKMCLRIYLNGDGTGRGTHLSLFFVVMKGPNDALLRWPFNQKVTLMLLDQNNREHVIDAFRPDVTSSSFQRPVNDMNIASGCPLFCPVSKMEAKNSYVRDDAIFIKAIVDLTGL
Description: as §1, §2, §3

[3] = target: T3, HA-Tnik(WT), full length human Tnik isoform 1 with N-terminal HA epitope tag (human, UniProt Q9UKE5 1-1360)
T3 construct: Expressed transiently in Phoenix-A cells and immunoprecipitated from lysate; also called Tnik1
Description: as §1, §2, §3

- binding result [1]: no binding
B1: HA-Tnik(C2), GCKH domain of Tnik (other)
chain: AYPYDVPDYARKISVVNVNPTNIRPHSDTPEIRKYKKRFNSEILCAALWGVNLLVGTENGLMLLDRSGQGKVYNLINRRRFQQMDVLEGLNVLVTISGKKNKLRVYYLSWLRNRILHNDPEVEKKQGWITVGDLEGCIHYKVVKYERIKFLVIALKNAVEIYAWAPKPYHKFMAFKSFADLQHKPLLVDLTVEEGQRLKVIFGSHTGFHVIDVDSGNSYDIYIPSHIQGNITPHAIVILPKTDGMEMLVCYEDEGVYVNTYGRITKDVVLQWGEMPTSVAYIHSNQIMGWGEKAIEIRSVETGHLDGVFMHKRAQRLKFLCERNDKVFFASVRSGGSSQVFFMTLNRNSMMNW

- binding result [1]: no binding
- binding result [2]: no binding
B2: HA-Tnik(N1), Tnik mutant with only the kinase domain (enzyme)
chain: AYPYDVPDYAMASDSPARSLDEIDLSALRDPAGIFELVELVGNGTYGQVYKGRHVKTGQLAAIKVMDVTGDEEEEIKQEINMLKKYSHHRNIATYYGAFIKKNPPGMDDQLWLVMEFCGAGSVTDLIKNTKGNTLKEEWIAYICREILRGLSHLHQHKVIHRDIKGQNVLLTENAEVKLVDFGVSAQLDRTVGRRNTFIGTPYWMAPEVIACDENPDATYDFKSDLWSLGITAIEMAEGAPPLCDMHPMRALFLIPRNPAPRLKSKKWSKKFQSFIESCLVKNHSQRPATEQLMKHPFIRDQPNERQVRIQLKDH

- binding result [3]: no binding
B3: FLAG-TRAF2(1-272) (other, human)
chain: DYKDDDDKGMAAASVTPPGSLELLQPGFSKTLLGTKLEAKYLCSACRNVLRRPFQAQCGHRYCSFCLASILSSGPQNCAACVHEGIYEEGISILESSSAFPDNAARREVESLPAVCPSDGCTWKGTLKEYESCHEGRCPLMLTECPACKGLVRLGEKERHLEHECPERSLSCRHCRAPCCGADVKAHHEVCPKFPLTCDGCGKKKIPREKFQDHVKTCGKCRVPCRFHAIGCLETVEGEKQQEHEVQWLREHLAMLLSSVLEAKPLLGDQSHAGSELLQRC
